The source of these data is the RNAGym collection of RNA variant scans (doi:10.7554/elife.80360).

B1: HDV Ribozyme (parent)
chain: GGCCGGCAUGGUCCCAGCCUCCUCGCUGGCGCCGGCUGGGCAACAUUCCGAGGGGACCGUCCCCUCGGUAAUGGCGAAUGGGACCCA

Variants of B1 are the subject of this series. Put plainly: self-cleavage, relative activity (ratio to wild type); higher = more cleavage; co-transcriptional.
Take G1U U23G: the self-cleavage was found to be 0.277.
The same measure for G1U U23C: 0.665.
Next, G1U U23A: 0.203; G1U G35C: 0.191.
Next, G1C G74A: 0.0678; G1C G74C: 0.
In the case of G1U A83C, the self-cleavage was 0.259.
The same measure for G1U A83G: 0.461.
The same measure for G1C C64A: 0.231.
The same measure for G1C C64G: 0.244; for G1U G50C: 0.203; for G1U G50A: 0.475.
For the variant G1C G68A, the self-cleavage came to 0.158.
Take G1C C13A: the self-cleavage was 0.0386.
The same measure for G1C A43U: 0.135.
Next, G1C A43C: 0.332; G1U G55U: 0.455.
Next, G1U G55A: 0.208; G1C U12C: 0.175.
In the case of G2A A42U, the self-cleavage came out at 0.0804.
The same measure for G2A A42G: 0.0302; for G2A A42C: 0.0432.
Next, G1C A71C: 0.256; G1C A71G: 0.
Next, G1U G59U: 0.451; G1U G59C: 0.277.
For G1U G59A, the self-cleavage worked out at 0.442.
As to G1U G54U, the self-cleavage came to 0.358.
In the case of G1A G31U, the self-cleavage is 0.
Next, G1A G31A: 0.131; G1A G31C: 0.0292; G1A G50A: 0.
Next, G1A G76A: 0.462; G1A G76U: 0.185.
The same measure for G1A G76C: 0.185.
On to G1C G54U, for which the self-cleavage is 0.396.
On to G1C G54C, for which the self-cleavage is 0.26.
Next, G1A C84U: 0.229; G1A C84A: 0.
The same measure for G1A C84G: 0.0978; for G1A G68A: 0.101.
Consider G1A G68C, for which the self-cleavage came to 0.0978.
Next, G1C G25U: 0.0665; G1C G25A: 0.0755.
The same measure for G1A G38C: 0.0405; for G1A U69G: 0.369; for G1A U69C: 0.104.
Next, G1A G82C: 0.133; G1U G25U: 0.248.
With G1C A77C, the self-cleavage stood at 0.
Next, G1C A77G: 0; G1U C33G: 0.248.
Take G1U C33U: the self-cleavage was determined as 0.436.
The same measure for G1C G73A: 0.201.
The same measure for G1U G81U: 0.41; for G1U G81C: 0.326; for G1C C14A: 0.0811.
The same measure for G1C C14G: 0.0615; for G1U G76U: 0.359; for G1U G76C: 0.277.
For the variant G1U C19G, the self-cleavage was 0.348.
The same measure for G1U C19A: 0.383.
Next, G1C C49U: 0.145; G1C C49G: 0.0898.
On to G1U G74U, for which the self-cleavage is 0.358.
Consider G1U G74A, for which the self-cleavage worked out at 0.288.
Next, G1U G74C: 0.262; G1C C19A: 0.201; G1C C19G: 0.
The same measure for G2A A16C: 0.0733; for G2A A16G: 0.237.
Next, G1U A51U: 0.462; G1U A87C: 0.408; G1U A87G: 0.332.
For the variant G1A G2U, the self-cleavage came to 0.852.
The same measure for G1C G59U: 0.0437; for G1C G59A: 0.19.
For the variant G1U C30G, the self-cleavage amounted to 0.282.
Take G1U C30U: the self-cleavage amounted to 0.35.
Next, G1U G17U: 0.309; G1A C85U: 0.0755.
Next, G1A C85G: 0.101; G1C A45G: 0.192.
The same measure for G1C A45U: 0; for G1A U37A: 0.161.
For the variant G1U A42C, the self-cleavage amounted to 0.332.
With G1U A42G, the self-cleavage is 0.403.
The same measure for G1U C13A: 0.321; for G1C C85A: 0.161; for G1C C57U: 0.252.
Next, G1C C57G: 0.222.
The same measure for G1C C15A: 0; for G1C C15G: 0.166.
On to G1U C75A, for which the self-cleavage was 0.277.
Next, G1U C75U: 0.321; G1U C4U: 0.251.
Next, G1U C4A: 0.277; G1A U27C: 0.119; G1A U27A: 0.
As to G1C G6U, the self-cleavage was found to be 0.217.
The same measure for G1U C44A: 0.479; for G1U C44G: 0.271; for G1U G39C: 0.397.
Next, G1U G39U: 0.337; G1C U79A: 0.237.
The same measure for G1C U79C: 0.177.
On to G1U G52A, for which the self-cleavage amounted to 0.356.
Next, G1U G52U: 0.372; G1U G52C: 0.332; G1C C63U: 0.0898.
Next, G1U C84A: 0.408; G1A G5C: 0.
Next, G1C G82C: 0.0504.
In the case of G1C G82U, the self-cleavage is 0.095.
Next, G1C G52A: 0.166; G1C G52U: 0.219.
For the variant G1U G29U, the self-cleavage was 0.308.
Next, G1U G29C: 0.292.
Next, G1A C64U: 0.101; G1A C64A: 0.131; G1U G67A: 0.506.
The same measure for G1C U47C: 0.399; for G1C U65A: 0.
Consider G1C U65G, for which the self-cleavage amounted to 0.
For the variant G1C C66A, the self-cleavage was determined as 0.19.
Consider G1C C66U, for which the self-cleavage was determined as 0.208.
Next, G1C C66G: 0.128.
Next, G1U U12C: 0.499; G1U U12G: 0.369; G1U U12A: 0.434.
The same measure for G1A G67C: 0.
On to G1A G67A, for which the self-cleavage came to 0.0665.
The same measure for G1C U72G: 0; for G2A A43U: 0.0203; for G1U C26A: 0.288.
Next, G1C A42C: 0.0639.
The same measure for G1U C3A: 0.654; for G1U C3U: 0.696.
Regarding G1U U9A, the self-cleavage was found to be 0.389.
Next, G1U U9C: 0.554; G1U U9G: 0.399.
Regarding G1U U72C, the self-cleavage was found to be 0.237.
Next, G1U U72A: 0.466; G1U A70G: 0.536; G1U A70C: 0.302.
In the case of G1C G10U, the self-cleavage stood at 0.143.
The same measure for G1C U37G: 0.
The same measure for G1C U37C: 0.128; for G1C U27A: 0.185; for G1C U27G: 0.277.
Turning to G1C C62A, the self-cleavage came to 0.101.
Next, G1C C62G: 0.0831.
Next, G1C C62U: 0.282; G1C G28A: 0.0405.
The same measure for G1C A51C: 0.133; for G1C A51G: 0.396.
For G1A U47A, the self-cleavage stood at 0.145.
With G1A U47C, the self-cleavage came to 0.128.
With G1A U47G, the self-cleavage is 0.
With G1U A56U, the self-cleavage stood at 0.394.
In the case of G1U A56G, the self-cleavage came out at 0.521.
In the case of G1U C49U, the self-cleavage came out at 0.391.
The same measure for G1U C22A: 0.441; for G1A G34C: 0.
Next, G1A G34A: 0.136.
With G1C G34U, the self-cleavage was 0.0692.
As for G1C C4G, the self-cleavage amounted to 0.
